This is an account of results in patent publication US20060073508.

The data set relates to hemagglutinin epitope-tagged Del301-303 human alpha-2B adrenergic receptor.

As for GRK2 (βARK1), the “agonist-promoted phosphorylation relative to wild-type” value is recorded as “the Del301-303 receptor displayed -56% of wild-type phosphorylation” and the “basal phosphorylation of the receptor” value is “Basal phosphorylation was equivalent between the two receptors”.
